{"source": "patent US20210107981A1", "about": "(SUTRO BIOPHARMA, published 2021)", "binders": {"B1": {"name": "h1E9-4 IgG (antibody)", "heavy": "not shown", "light": "MDIQLTQSPSFLSASVGDRVTITCRASESVDNSGISFMSWYQQKPGKAPKLLIYTASNQGSGVPSRFSGSGSGTEFTLTISSLQPEDFATYYCQQSKEVPWTFGQGTKVEIKRTVAAPSVFIFPPSDEQLKSGTASVVCLLNNFYPREAKVQWKVDNALQSGNSQESVTEQDSKDSTYSLSSTLTLSKADYEKHKVYACEVTHQGLSSPVTKSFNRGEC", "notes": "Human IgG1; heavy chain with C-terminal FlagHis tag; made by cell-free expression; also called h1E9-4 human IgG1"}, "B2": {"name": "h1E9-5 IgG (antibody)", "heavy": "not shown", "light": "MEIVLTQSPATLSLSPGERATLSCRASESVDNSGISFMSWYQQKPGQAPRLLIYTASNQGSGIPARFSGSGSGTDFTLTISSLEPEDFAVYYCQQSKEVPWTFGQGTKVEIKRTVAAPSVFIFPPSDEQLKSGTASVVCLLNNFYPREAKVQWKVDNALQSGNSQESVTEQDSKDSTYSLSSTLTLSKADYEKHKVYACEVTHQGLSSPVTKSFNRGEC", "notes": "Human IgG1; heavy chain with C-terminal FlagHis tag; made by cell-free expression; also called h1E9-5 human IgG1"}, "B3": {"name": "h1E9-HC3 × h1E9-LC1 IgG (antibody)", "heavy": "not shown", "light": "B1 light with F11S, E75D, L78F, F88I", "notes": "Humanized IgG; heavy chain with C-terminal FlagHis tag"}, "B4": {"name": "h1E9-5-IgG-HC-FLAG-HIS × h1E9-LC1 IgG (antibody)", "heavy": "not shown", "light": "B1 light with F11S, E75D, L78F, F88I", "notes": "also called h1E9-5 HC × h1E9-LC1"}, "B5": {"name": "h1E9-HC1 × h1E9-LC1 IgG (antibody)", "heavy": "not shown", "light": "B1 light with F11S, E75D, L78F, F88I", "notes": "as for B3"}, "B6": {"name": "h1E9-HC2 × h1E9-LC1 IgG (antibody)", "heavy": "not shown", "light": "B1 light with F11S, E75D, L78F, F88I", "notes": "as for B3"}, "B7": {"name": "h1E9-HC3 × h1E9-LC3 IgG (antibody)", "heavy": "not shown", "light": "B2 light with A10G, A65D, S82R", "notes": "as for B3"}, "B8": {"name": "h1E9-5-IgG-HC-FLAG-HIS × h1E9-LC3 IgG (antibody)", "heavy": "not shown", "light": "B2 light with A10G, A65D, S82R", "notes": "also called h1E9-5 HC × h1E9-LC3"}, "B9": {"name": "h1E9-HC1 × h1E9-LC3 IgG (antibody)", "heavy": "not shown", "light": "B2 light with A10G, A65D, S82R", "notes": "as for B3"}, "B10": {"name": "h1E9-HC2 × h1E9-LC3 IgG (antibody)", "heavy": "not shown", "light": "B2 light with A10G, A65D, S82R", "notes": "as for B3"}, "B11": {"name": "h1E9-HC3 × h1E9-LC2 IgG (antibody)", "heavy": "not shown", "light": "MDIVLTQSPLSLPVTPGEPASISCRASESVDNSGISFMSWYLQKPGQSPQLLIYTASNQGSGVPDRFSGSGSGTDFTLKISRVEAEDVGVYYCQQSKEVPWTFGQGTKVEIKRTVAAPSVFIFPPSDEQLKSGTASVVCLLNNFYPREAKVQWKVDNALQSGNSQESVTEQDSKDSTYSLSSTLTLSKADYEKHKVYACEVTHQGLSSPVTKSFNRGEC", "notes": "as for B3"}, "B12": {"name": "h1E9-5-IgG-HC-FLAG-HIS × h1E9-LC2 IgG (antibody)", "heavy": "not shown", "light": "B11 light", "notes": "also called h1E9-5 HC × h1E9-LC2"}, "B13": {"name": "h1E9-HC1 × h1E9-LC2 IgG (antibody)", "heavy": "not shown", "light": "B11 light", "notes": "as for B3"}, "B14": {"name": "h1E9-HC2 × h1E9-LC2 IgG (antibody)", "heavy": "not shown", "light": "B11 light", "notes": "as for B3"}, "B15": {"name": "h1E9-HC3 × h1E9-LC4 IgG (antibody)", "heavy": "not shown", "light": "MDIVLTQSPDSLAVSLGERATINCRASESVDNSGISFMSWYQQKPGQPPKLLIYTASNQGSGVPDRFSGSGSGTDFTLTISSLQAEDVAVYYCQQSKEVPWTFGQGTKVEIKRTVAAPSVFIFPPSDEQLKSGTASVVCLLNNFYPREAKVQWKVDNALQSGNSQESVTEQDSKDSTYSLSSTLTLSKADYEKHKVYACEVTHQGLSSPVTKSFNRGEC", "notes": "as for B3"}, "B16": {"name": "h1E9-5-IgG-HC-FLAG-HIS × h1E9-LC4 IgG (antibody)", "heavy": "not shown", "light": "B15 light", "notes": "also called h1E9-5 HC × h1E9-LC4"}, "B17": {"name": "h1E9-HC1 × h1E9-LC4 IgG (antibody)", "heavy": "not shown", "light": "B15 light", "notes": "as for B3"}, "B18": {"name": "h1E9-HC2 × h1E9-LC4 IgG (antibody)", "heavy": "not shown", "light": "B15 light", "notes": "as for B3"}}, "note": "Changes are numbered by the printed parent chain."}
{"target": "T1, Human PD-1 (ACROBiosystems, Inc., Catalog No. PD1-H5221) (human, UniProt Q15116 25-167)", "T1 construct": "Bought recombinant protein; also called huPD1-His; PD-1-his; not shown: His tag of the bought protein (huPD1-His)", "T1 sequence (Q15116 25-167 limits assumed)": "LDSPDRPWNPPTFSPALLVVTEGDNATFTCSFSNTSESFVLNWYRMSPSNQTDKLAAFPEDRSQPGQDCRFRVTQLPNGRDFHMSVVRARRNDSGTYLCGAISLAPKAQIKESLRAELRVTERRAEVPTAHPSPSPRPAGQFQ", "experiment": "SPR (Biacore), IgG as ligand, PD-1-his as sample", "units": {"Kd": "nM", "koff": "s⁻¹", "kon": "M⁻¹ s⁻¹"}}
{"binder": "B1", "Kd": 12.4, "koff": 0.000442, "kon": 35600}
{"binder": "B2", "Kd": 19.4, "koff": 0.000471, "kon": 24300}
{"target": "T1, Human PD-1 (ACROBiosystems, Inc., …)", "experiment": "SPR (Biacore), IgG as ligand, PD-1-his as sample", "remark": "another data set of the same source", "units": {"Kd": "nM"}}
{"binder": "B3", "Kd": 3.6}
{"binder": "B4", "Kd": 3.7}
{"binder": "B5", "Kd": 5.08}
{"binder": "B6", "Kd": 3.11}
{"binder": "B7", "Kd": 16.9}
{"binder": "B8", "Kd": 16.3}
{"binder": "B9", "Kd": 6.38}
{"binder": "B10", "Kd": 10.9}
{"binder": "B11", "Kd": 3.19}
{"binder": "B12", "Kd": 16.2}
{"binder": "B13", "Kd": 19}
{"binder": "B14", "Kd": 12.3}
{"binder": "B15", "Kd": 9.4}
{"binder": "B16", "Kd": 7.31}
{"binder": "B17", "Kd": 6.33}
{"binder": "B18", "Kd": 4.96}
{"target": "T2, human PD-1 expressed on the cell surface (CHO-PD1 cells) (human, UniProt Q15116 25-288)", "T2 construct": "Also used here as the target for native PD-1 on human PBMC / T cells in the functional (IFN-g) assays; also called CHO cell line overexpressing human PD-1; Cell-Surface Human PD-1 antigen", "T2 sequence (Q15116 25-288 limits assumed)": "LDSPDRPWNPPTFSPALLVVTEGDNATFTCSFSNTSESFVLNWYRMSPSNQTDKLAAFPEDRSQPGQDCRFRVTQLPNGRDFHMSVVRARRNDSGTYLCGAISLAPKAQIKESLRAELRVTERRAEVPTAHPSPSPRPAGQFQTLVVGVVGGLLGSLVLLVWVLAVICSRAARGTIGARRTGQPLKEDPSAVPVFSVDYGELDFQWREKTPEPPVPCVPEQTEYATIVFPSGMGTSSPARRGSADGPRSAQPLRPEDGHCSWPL", "experiment": "FACS cell binding on CHO cells expressing human PD-1", "description": "(§1) A mix of parental CHO cells and CHO-PD1 cells was prepared as follows: Parental CHO cells were washed 2× in PBS then incubated in PBS containing 1 μM CellTrace™ Oregon Green488® (Life Technologies) at 37° C. for 30 minutes. Cells were then washed 2× with RPMI w/10% fetal calf serum (FCS), washed 2× with FACS buffer (PBS w/2% FCS), suspended thoroughly in ice-cold FACS buffer at a final concentration of 2×10⁶ cells/mL and kept on ice. CHO-PD1 cells were similarly washed with FACS buffer and kept on ice at 2×10⁶ cells/mL. Parental CHO cells and CHO-PD1 cells were then mixed to obtain a 1:1 cell suspension and seeded at 100 μL per well on 96 well polypropylene plates. Plates were spun at 1500 rpm for 5 minutes and cell pellets were suspended in 50 μL FACS buffer containing 6-12 point dilutions of anti-PD-1 variants starting from concentrations of −100-200 nM antibody, dispensed using BioMek FX (Beckman Coulter). Cells were then incubated on ice for 1 hr, washed with FACS buffer and incubated for 1 hr on ice with 50 μL FACS buffer containing 2.5 μg/ml R-phycoerythrin-conjugated goat anti-Human IgG (Jackson ImmunoResearch) or AF647-conjugated goat anti-mouse IgG (Life Technologies) dispensed using BioMek FX (Beckman Coulter). Cells were then washed 2× with FACS buffer and fixed for 10 minutes in 200 μL PBS with 2% paraformaldehyde (PFA) prior to fluorescence detection. Samples were acquired using a Becton Dickinson LSRII FACS. Mean Fluorescence Intensity of PD-1 antibody binding was analyzed using FlowJo® software (Tree Star, Inc.).\nThe affinity of the IgGs for cell-surface expressed human PD-1 were measured according to Example 6, above.", "units": {"Kd": "nM"}}
{"binder": "B3", "Kd": 8}
{"binder": "B4", "Kd": 9}
{"binder": "B5", "Kd": 6}
{"binder": "B6", "Kd": 7}
{"binder": "B7", "Kd": 12}
{"binder": "B8", "Kd": 11}
{"binder": "B9", "Kd": 12}
{"binder": "B10", "Kd": 9}
{"binder": "B11", "Kd": 19}
{"binder": "B12", "Kd": 16}
{"binder": "B13", "Kd": 12}
{"binder": "B14", "Kd": 11}
{"binder": "B15", "Kd": 9}
{"binder": "B16", "Kd": 14}
{"binder": "B17", "Kd": 8}
{"binder": "B18", "Kd": 4}
{"target": "T3, cynomolgus PD-1 expressed on CHO cells (cynomolgus, UniProt B0LAJ3 25-288)", "T3 construct": "also called Cell-Surface Cynomolgus PD-1 antigen", "T3 sequence (B0LAJ3 entry or part of it limits assumed, form in doubt)": "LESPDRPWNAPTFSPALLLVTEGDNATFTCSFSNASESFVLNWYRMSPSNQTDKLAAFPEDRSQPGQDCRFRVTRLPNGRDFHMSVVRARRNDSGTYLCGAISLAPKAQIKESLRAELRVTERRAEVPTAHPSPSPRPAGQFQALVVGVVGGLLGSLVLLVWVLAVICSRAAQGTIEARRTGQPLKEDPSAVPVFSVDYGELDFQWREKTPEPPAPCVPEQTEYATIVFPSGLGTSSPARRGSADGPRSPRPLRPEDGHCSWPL", "experiment": "FACS cell binding on CHO cells expressing cynomolgus PD-1", "description": "as §1\nThe affinity of the IgGs for cell-surface expressed cynomolgus PD-1 were measured according to Example 6, above.", "units": {"Kd": "nM"}}
{"binder": "B3", "Kd": 4}
{"binder": "B4", "Kd": 4}
{"binder": "B5", "Kd": 7}
{"binder": "B6", "Kd": 6}
{"binder": "B7", "Kd": 8}
{"binder": "B8", "Kd": 9}
{"binder": "B9", "Kd": 15}
{"binder": "B10", "Kd": 9}
{"binder": "B11", "Kd": 11}
{"binder": "B12", "Kd": 11}
{"binder": "B13", "Kd": 19}
{"binder": "B14", "Kd": 9}
{"binder": "B15", "Kd": 5}
{"binder": "B16", "Kd": 12}
{"binder": "B17", "Kd": 11}
{"binder": "B18", "Kd": 6}
